± gives the standard deviation.
Assay: protein stability index of a GFP-peptide fusion (GPS, HEK-293T) (PSI 1-6); higher = more stable
Details: c terminus: a fixed tail appended
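Also: 24-mer peptide tiles fused after GFP, lentivirally expressed, FACS-sorted into six equal bins by GFP/DsRed ratio, decoded by Illumina sequencing, PSI is the read-weighted mean bin number.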

RENGNNSSDKVRGIETLESVPIIG [PHTF1]
protein stability index (treatment: DMSO): 4.8 ± 0.33 | protein stability index (treatment: MLN4924 1 uM, 8 h): 4.53 ± 0.36

LFAIANGFSPSYEFFAVTRFLVGM [SLC22A15]
protein stability index (treatment: DMSO): 3.06 ± 0.34 | protein stability index (treatment: MLN4924 1 uM, 8 h): 2.57 ± 1.3

RMKKNGMEMTRPTPPHLTSAMAEN [NOL4L]
protein stability index (treatment: DMSO): 4.41 ± 0.071 | protein stability index (treatment: MLN4924 1 uM, 8 h): 4.37 ± 0.29

AQFHCAYQLADWCLHHICTNYNNV [RHOBTB2]
protein stability index (treatment: DMSO): 3.34 ± 0.36 | protein stability index (treatment: MLN4924 1 uM, 8 h): 3.15 ± 0.89

REKGGKVLVHCEAGISRSPTICMA [DUSP5]
protein stability index (treatment: DMSO): 2.93 ± 0.27 | protein stability index (treatment: MLN4924 1 uM, 8 h): 3.03 ± 0.38

FLDIDTSAVEKEPARAPPEPPHNL [SERTAD3]
protein stability index (treatment: DMSO): 4.84 ± 0.13 | protein stability index (treatment: MLN4924 1 uM, 8 h): 4.98 ± 0.45

NPTEPATIIFTAAREGRETLKCLS [TOR1AIP2]
protein stability index (treatment: DMSO): 3.71 ± 0.25 | protein stability index (treatment: MLN4924 1 uM, 8 h): 3.69 ± 0.12

APSFSSYLYFLFCPTLIYRETYPR [SOAT2]
protein stability index (treatment: DMSO): 2.99 ± 0.17 | protein stability index (treatment: MLN4924 1 uM, 8 h): 2.7 ± 0.44

VAQFVLTEGNPRWEQTHLTYRIEN [MMP1]
protein stability index (treatment: DMSO): 2.35 ± 0.36 | protein stability index (treatment: MLN4924 1 uM, 8 h): 2.35 ± 0.43

EAFQLYQEAAQLDMLLEKLPQVAE [FLOT1]
protein stability index (treatment: DMSO): 2.43 ± 0.37 | protein stability index (treatment: MLN4924 1 uM, 8 h): 2.69 ± 0.44

THGVGLVLRVEQQPHLPLLSTLAG [SCNN1D]
protein stability index (treatment: DMSO): 2.12 ± 0.23 | protein stability index (treatment: MLN4924 1 uM, 8 h): 2.17 ± 0.15

ITWFKDFLPVDTSNNNGRIKQLRS [PTPRD]
protein stability index (treatment: DMSO): 2.47 ± 0.52 | protein stability index (treatment: MLN4924 1 uM, 8 h): 2.96 ± 0.3

EYQVLLDVKARLEGEIATYRHLLE [KRT36]
protein stability index (treatment: DMSO): 2.54 ± 0.32 | protein stability index (treatment: MLN4924 1 uM, 8 h): 2.53 ± 0.29

LESSEELLETANQTLQAMDSEDFP [FSD1]
protein stability index (treatment: DMSO): 5.4 ± 0.19 | protein stability index (treatment: MLN4924 1 uM, 8 h): 5.57 ± 0.1

YIHSCPKMKYKGQYRPSDLLCPET [ATE1]
protein stability index (treatment: DMSO): 2.06 ± 0.29 | protein stability index (treatment: MLN4924 1 uM, 8 h): 2.47 ± 0.34

SMHKYQPRLHIVKADENNGFGSKN [TBX5]
protein stability index (treatment: DMSO): 3.94 ± 0.4 | protein stability index (treatment: MLN4924 1 uM, 8 h): 4.24 ± 0.33

IQFIKLFGMAKIDNLLQEMLLGGS [HNF4A]
protein stability index (treatment: DMSO): 2.84 ± 0.72 | protein stability index (treatment: MLN4924 1 uM, 8 h): 3.11 ± 0.61

MEAQAQGLLETEPLQGTDEDAVAS [TPD52L1]
protein stability index (treatment: DMSO): 5.56 ± 0.19 | protein stability index (treatment: MLN4924 1 uM, 8 h): 5.56 ± 0.16

RTNDGKITYPPGVKEISDKISKEE [PDS5B]
protein stability index (treatment: DMSO): 5.02 ± 0.19 | protein stability index (treatment: MLN4924 1 uM, 8 h): 5.197 ± 0.006

LQQLLVLQPEQQLNIYKTLKTHLI [CDS1]
protein stability index (treatment: DMSO): 2.4 ± 0.55 | protein stability index (treatment: MLN4924 1 uM, 8 h): 2.17 ± 0.36

MCDAFVGTWKLVSSENFDDYMKEV [FABP4]
protein stability index (treatment: DMSO): 2.55 ± 0.44 | protein stability index (treatment: MLN4924 1 uM, 8 h): 2.42 ± 0.46

PTLGGGFHVNLGKESRAQTLQNGR [BRF1]
protein stability index (treatment: DMSO): 4.04 ± 0.47 | protein stability index (treatment: MLN4924 1 uM, 8 h): 4.14 ± 0.33

TSVQEADETTRSDISERPSVDDIE [C2CD2L]
protein stability index (treatment: DMSO): 5.57 ± 0.27 | protein stability index (treatment: MLN4924 1 uM, 8 h): 5.61 ± 0.19

SKRLAVPCKLEKMRILAHGELVLA [TLE6]
protein stability index (treatment: DMSO): 2.26 ± 0.49 | protein stability index (treatment: MLN4924 1 uM, 8 h): 2.35 ± 0.45

GNGALSNISDLPFLAENSAFPKMA [LCOR]
protein stability index (treatment: DMSO): 3.72 ± 0.22 | protein stability index (treatment: MLN4924 1 uM, 8 h): 3.49 ± 0.17

IQDKLFQVAKREREAATKHSKASL [CHCHD6]
protein stability index (treatment: DMSO): 3.86 ± 0.47 | protein stability index (treatment: MLN4924 1 uM, 8 h): 4.14 ± 0.22

PPWFEGLESRFQSKSGYLRYSCES [DFFB]
protein stability index (treatment: DMSO): 2.51 ± 0.19 | protein stability index (treatment: MLN4924 1 uM, 8 h): 2.54 ± 0.2

KLGLHDNHWVPACHSFNRAIHKKA [FBXO34]
protein stability index (treatment: DMSO): 2.79 ± 0.14 | protein stability index (treatment: MLN4924 1 uM, 8 h): 2.91 ± 0.18

VINQADVRNNRSIIKQLKDVFERD [PLD5]
protein stability index (treatment: DMSO): 3.2 ± 0.2 | protein stability index (treatment: MLN4924 1 uM, 8 h): 3.29 ± 0.35

SAGVGRTGVFITLSIVLERMRYEG [PTPRD]
protein stability index (treatment: DMSO): 2.08 ± 0.095 | protein stability index (treatment: MLN4924 1 uM, 8 h): 2.34 ± 0.28

TSLRLVFLLAFGLMIIVCIDQWKN [RETREG3]
protein stability index (treatment: DMSO): 2.21 ± 0.3 | protein stability index (treatment: MLN4924 1 uM, 8 h): 2.03 ± 0.17

YALQMEQLNGILLHLESELAQTRA [KRT18]
protein stability index (treatment: DMSO): 2.24 ± 0.18 | protein stability index (treatment: MLN4924 1 uM, 8 h): 2.43 ± 0.29

VRFSLGTTTHAPPGVHRRYSALRE [PPFIA4]
protein stability index (treatment: DMSO): 2.72 ± 0.19 | protein stability index (treatment: MLN4924 1 uM, 8 h): 2.76 ± 0.19

YEELRNSERAEVQRLEEQERRHRE [RSPH3]
protein stability index (treatment: DMSO): 5.4 ± 0.25 | protein stability index (treatment: MLN4924 1 uM, 8 h): 5.38 ± 0.28

TIHGLIYNALKLFMEMNQKLFDDC [PPP2R5C]
protein stability index (treatment: DMSO): 2.93 ± 0.33 | protein stability index (treatment: MLN4924 1 uM, 8 h): 2.89 ± 0.45

MQAASSKMVSAEISENRKRQWPTK [SDE2]
protein stability index (treatment: DMSO): 4.33 ± 0.33 | protein stability index (treatment: MLN4924 1 uM, 8 h): 4.7 ± 0.17

DETHFGKMGSYYINRTFFFDVHPP [POMT2]
protein stability index (treatment: DMSO): 2.45 ± 0.21 | protein stability index (treatment: MLN4924 1 uM, 8 h): 2.23 ± 0.33

IIHETAVGMNFLHCMAPPLLHLDL [RIPK4]
protein stability index (treatment: DMSO): 2.6 ± 0.64 | protein stability index (treatment: MLN4924 1 uM, 8 h): 2.57 ± 0.85

SIPQSSLEPLKAIIQYRLPMKKNN [ACSBG2]
protein stability index (treatment: DMSO): 3.48 ± 0.14 | protein stability index (treatment: MLN4924 1 uM, 8 h): 3.49 ± 0.3

VNCISPLKYFSDFRPYFTIHDSEF [DENND6A]
protein stability index (treatment: DMSO): 2.27 ± 0.68 | protein stability index (treatment: MLN4924 1 uM, 8 h): 1.92 ± 0.19

FLLFLLTGIVSVAFLLLPLPDELG [MOSPD3]
protein stability index (treatment: DMSO): 3.36 ± 0.39 | protein stability index (treatment: MLN4924 1 uM, 8 h): 2.89 ± 0.9

SCLKAIVLFTSDACGLSDVAHVES [NR2F2]
protein stability index (treatment: DMSO): 2.43 ± 0.7 | protein stability index (treatment: MLN4924 1 uM, 8 h): 2.08 ± 0.36

DRFLAGVPTPKSHLQLLGAVCMFL [CCND2]
protein stability index (treatment: DMSO): 2.63 ± 0.2 | protein stability index (treatment: MLN4924 1 uM, 8 h): 2.27 ± 0.21

AGSVFGGGFGGGVGGGFGGGFGGG [KRT15]
protein stability index (treatment: DMSO): 2.56 ± 0.23 | protein stability index (treatment: MLN4924 1 uM, 8 h): 2.65 ± 0.21

SEALLYALVHDHQAYAHYLLATFP [ANKRD9]
protein stability index (treatment: DMSO): 2.7 ± 0.49 | protein stability index (treatment: MLN4924 1 uM, 8 h): 2.61 ± 0.53

SGTIMKIGIEAKNLASYDVCSILL [MCOLN1]
protein stability index (treatment: DMSO): 2.87 ± 0.55 | protein stability index (treatment: MLN4924 1 uM, 8 h): 2.64 ± 0.37

DNVPDPKDVKERFSGSLVAALSAT [TMEM175]
protein stability index (treatment: DMSO): 4.42 ± 0.34 | protein stability index (treatment: MLN4924 1 uM, 8 h): 4.44 ± 0.34

HYPFLGAMGDHSKKKPGTAMCVGC [ISL2]
protein stability index (treatment: DMSO): 2.86 ± 0.34 | protein stability index (treatment: MLN4924 1 uM, 8 h): 3.25 ± 0.43

AALRIANCKLFRLQLQQGLFRIRV [GAN]
protein stability index (treatment: DMSO): 2.8 ± 0.57 | protein stability index (treatment: MLN4924 1 uM, 8 h): 2.58 ± 0.51

EEEGFGSSSPVKSPAAPYFLGSSF [WEE1]
protein stability index (treatment: DMSO): 3.73 ± 0.18 | protein stability index (treatment: MLN4924 1 uM, 8 h): 3.77 ± 0.065

SCVIPLRHGGLSLVQTTDFFYPLV [SEPHS2]
protein stability index (treatment: DMSO): 2.42 ± 0.34 | protein stability index (treatment: MLN4924 1 uM, 8 h): 2.31 ± 0.45

ENRGIVVLGINRAYGKNSLSKNLI [AUH]
protein stability index (treatment: DMSO): 2.84 ± 1.2 | protein stability index (treatment: MLN4924 1 uM, 8 h): 2.44 ± 1.2

DPSSTKPGTLLKTSPSPERSLLLK [TRIM14]
protein stability index (treatment: DMSO): 4.59 ± 0.2 | protein stability index (treatment: MLN4924 1 uM, 8 h): 4.67 ± 0.21

ERMWAAIQSWDINSRRNINYRSFE [ZER1]
protein stability index (treatment: DMSO): 2.28 ± 0.35 | protein stability index (treatment: MLN4924 1 uM, 8 h): 2.26 ± 0.25

VLDLSKSLSAALLTAALLTFDTGC [POMT2]
protein stability index (treatment: DMSO): 3.38 ± 0.38 | protein stability index (treatment: MLN4924 1 uM, 8 h): 2.98 ± 0.2

CKRNFVAVYDGSSSVEDLKAKFCS [NETO1]
protein stability index (treatment: DMSO): 2.78 ± 0.39 | protein stability index (treatment: MLN4924 1 uM, 8 h): 2.9 ± 0.36

FIIEYYNIRPADSRWVRDPRYRED [FBXO34]
protein stability index (treatment: DMSO): 2.44 ± 0.53 | protein stability index (treatment: MLN4924 1 uM, 8 h): 2.26 ± 0.29

VDYPLHDLVLHTNYTATVRGLRGP [TNXB]
protein stability index (treatment: DMSO): 2.71 ± 0.19 | protein stability index (treatment: MLN4924 1 uM, 8 h): 2.81 ± 0.24

TIEERVNILFDFVKKKKEEGVIDS [EIF5]
protein stability index (treatment: DMSO): 3.68 ± 0.065 | protein stability index (treatment: MLN4924 1 uM, 8 h): 3.39 ± 0.29

RLLQASGGGLTGVSGSHFVGVDGV [PCDHGA10]
protein stability index (treatment: DMSO): 2.78 ± 0.46 | protein stability index (treatment: MLN4924 1 uM, 8 h): 3.01 ± 0.28

NSHVYNGRTHQWKPLYPDDYVHIS [ADAMTSL2]
protein stability index (treatment: DMSO): 2.78 ± 0.31 | protein stability index (treatment: MLN4924 1 uM, 8 h): 2.8 ± 0.34

ENEKLHQRVEQLTRDLAGLRQFFK [CEBPD]
protein stability index (treatment: DMSO): 3.01 ± 1.3 | protein stability index (treatment: MLN4924 1 uM, 8 h): 2.55 ± 0.28

PSDFCGLTHLVKLDLSKNKLQQLP [LRRC59]
protein stability index (treatment: DMSO): 2.17 ± 0.31 | protein stability index (treatment: MLN4924 1 uM, 8 h): 2.16 ± 0.17

NYPKGGLLDSMCPASTPSVLSSEQ [ETS2]
protein stability index (treatment: DMSO): 4.64 ± 0.26 | protein stability index (treatment: MLN4924 1 uM, 8 h): 4.45 ± 0.15

VQQWLQKGTPASKLILGMPTYGRS [CHIT1]
protein stability index (treatment: DMSO): 2.25 ± 0.25 | protein stability index (treatment: MLN4924 1 uM, 8 h): 2.51 ± 0.29

Reference: the supplement of paper PMC10567573
